The test system of this test is B16F10 melanoma cells. The test is described as follows: B16F10 experimental lung metastasis model. The test is classed as in vivo, mouse. The protocol:
FIG. 2. […] (A) The schematic and timeline of expanding MAIT cells from splenocytes derived from C57BL/6 WT mice with IL-2 and 5-OP-RU, for sorting and adoptive transfer into tumor-bearing mice. (B, C) Groups of WT or MR1^−/− or Rag2cγ^−/− mice (n=5-6/group) were injected i.v. with (B) 1×10^5 or (C) 1×10^4 B16F10 melanoma cells. In some groups, sorted MAIT or T conventional cells (cT) (non-MAIT αβ^+ T cells) (2×10^5 cells/mouse) from C57BL/6 (B) WT or (C) TCRδ^−/− mice were i.v. injected into the indicated groups of mice one day before tumor inoculation. (C) One group of mice received i.v injection of media alone as a control. (B, C) On day 14 relative to tumor cell inoculation, lungs were harvested and the metastatic burden was quantified by counting colonies on the lung surface. Data presented as mean±SEM. (D) B16F10 or LWT1 melanoma cells were stimulated in vitro with DMSO or 5-OP-RU (100 nM) for 4 hours before cell surface MR1 expression was determined by flow cytometry. Groups of C57BL/6 WT or MR1^−/− mice (n=5-6/group) were i.v. injected with (E) 1×10^5 B16F10 or (F) 5×10^5 LWT1 cells melanoma cells pulsed with DMSO or 5-OP-RU (100 nM, 4 hours). Fourteen days later relative to tumor cell inoculation, lungs were harvested and the metastatic burden was quantified by counting colonies on the lung surface. Data presented as mean±SEM. Experiments performed once for (B, C, F) and three times for (D, E) with one representative experiment shown. Significant differences between groups as indicated by crossbars were determined using a one-way ANOVA followed by Tukey's post-hoc test (B, E, F), *p<0.05, **p<0.01, ****p<0.0001
FIG. 5. […] (A) Generation of three independent B16F10 cell lines knocked out for MR1 using three different MR1 sgRNA. […] Empty vector transfected B16F10 cells were used as a positive control. (B, C) Groups of C57BL/6 WT, MR1^−/− or Rag2cγ^−/− mice (n=5-6/group) were i.v. injected with either (B) 1×10^5 B16F10 vector control cells or the indicated clone of B16F10 cells lacking MR1 (sgR1, sgR2, sgR3) or (C) 1×10^4 B16F10-MR1^KO cells (sgR3 clone). On day 14 relative to tumor cell inoculation, lungs were harvested and the metastatic burden was quantified by counting colonies on the lung surface. Data presented as mean±SEM. (D) Re-expression of GFP or GFP-MR1 expressing vector into B16F10-MR1^KO (sgR3 clone). MR1 surface expressions of these cells stimulated with or without 5-OP-RU were assessed by flow cytometry. (E) Groups of C57BL/6 WT mice (n=6/group) were i.v. injected with 1×10^5 B16F10-MR1^KO (sgR3 clone) transfected with empty GFP-expressing vector or MR1-GFP-expressing vector. (F) Groups of C57BL/6 WT or MR1^−/− mice were i.v. injected with parental B16F10 cells treated with vehicle (dd H2O) or AC-6-FP (10 μM, 18 hours). On day 14 relative to tumor cell injection, lungs were harvested and the metastatic burden was quantified by counting colonies on the lung surface. Data presented as mean±SEM. Experiments performed twice for (A-E) and once for (F). Significant differences between groups as indicated by crossbars were determined by a one-way ANOVA followed by Tukey's post-hoc test (A, F), or a Mann-Whitney test (C, E), *p<0.05, **p<0.01, ****p<0.0001.
FIG. 6. […] Groups of C57BL/6 WT or MR1^−/− mice (n=5-6/group) were i.v. injected with (A, B) 1×10^5 B16F10, (C) 1×10^5 parental B16F10 or 2×10^5 B16F10-MR1^KO (sgR3 clone) melanoma cells and (D) 5×10^5 LWT1 melanoma cells or s.c injected with (E) 1×10^6 MCA1956 fibrosarcoma or (F) 1×10^6 SM1WT1 melanoma cells on day 0.

These results are taken from US20220213198A1, “METHOD OF TREATMENT” (The Council of the Queensland Institute of Medical Research, priority 2019, published 2022).

With `CC(=O)C=Nc1c(NC[C@H](O)[C@H](O)[C@H](O)CO)[nH]c(=O)[nH]c1=O` [5-OP-RU], the “number of lung metastases” value is, setting by setting: (MR1-/- mice i.v. injected with pre-treated B16F10, vs DMSO-treated, day 14) “this increase was lost”; (WT mice i.v. injected with B16F10 pre-treated 100 nM 4 h, vs DMSO-treated, day 14) “significantly increased”.

B1: 8F2.F9: anti-MR1 blocking antibody from hybridoma clone 8F2.F9, IgG1 isotype; heavy chain SEQ ID NO: 14, light chain SEQ ID NO: 18 (antibody, listed as Mus musculus, V domains shown)
VH: MKFSWVIFFLMAVVTGVNSEVQLQQSVAELVRPGASVKLSCTASGFNIKNTYMHWVKKRPELGLEWIGRIDPANGNTNFAPKFQGKATITADTSSNTAYLQLSSLTSEDTAIYYCPRGSGNYYFDYWGQGTTLTVSS
VL: MSSAQFLGLLLLCFQGTRCDIQMTQTTSSLSASLGDRVTISCRASQDISNYLNWYQQKPDGPVKLLIYYTSRLHSGVPSRFSGSGSGTDYSLTINNLAQEDIATYFCQQGNTLPYTFGGGTKLEIK
Take B1: the “number of lung metastases” value (B16F10 tumor-bearing MR1-/- mice, antibody vs cIg) is recorded as “no further decrease”. For the same molecule, the “suppression of B16F10 lung metastases compared with the 26.5 clone” value (WT mice, 250 μg/mouse i.p.) is given as “superior”. The “suppression of B16F10 lung metastases, three vs four doses” value (WT mice, 250 μg/mouse i.p., days -1, 0, 3 vs days -1, 0, 3 and 7) is listed as “equivalently reduced”. Also, the “B16F10-MR1 KO (sgR3) lung metastases numbers” value (WT mice, antibody vs cIg, days -1, 0 and 3) is reported as “not reduced”.
